# Assays:
# [1] = biological target: ASC (apoptosis-associated speck-like protein containing a CARD) (UniProt Q9ULZ3); assay: real-time NMR
# [2] = biological target: ASCb (alternative splicing isoform of ASC) (UniProt Q9ULZ3); assay: real-time NMR
k1aveCARD (average apparent rate constant k1 of the residues of the CARD) [1],k1avePYD (average apparent rate constant k1 of the residues of the PYD) [1],k2aveCARD (average apparent rate constant k2 of the residues of the CARD) [1],k2avePYD (average apparent rate constant k2 of the residues of the PYD) [1],"k1 (apparent oligomerization rate constant, exponential fit) [2]",k1aveCARD (average apparent rate constant k1 of the residues of the CARD) [2],k1avePYD (average apparent rate constant k1 of the residues of the PYD) [2],"k2 (apparent oligomerization rate constant, exponential fit) [2]",k2aveCARD (average apparent rate constant k2 of the residues of the CARD) [2],k2avePYD (average apparent rate constant k2 of the residues of the PYD) [2],reaction order m of oligomer formation (column of 495 μM) [2],reaction order m of oligomer formation (column of 704 μM) [2],Substance
0.12 h⁻¹,0.21 h⁻¹,0.02 h⁻¹,0.05 h⁻¹,–,–,–,–,–,–,–,–,ASC (apoptosis-associated speck-like protein containing a CARD) (from UniProt Q9ULZ3 1-195) (natural protein)
–,–,–,–,0.02 h⁻¹,0.0288 h⁻¹,0.0269 h⁻¹,0.02 h⁻¹,0.0288 h⁻¹,0.0269 h⁻¹,3.6,3.6,ASCb (alternative splicing isoform of ASC) (from UniProt Q9ULZ3-2 1-176) (natural protein)
